Measured values published in the supplement of paper PMC10724198.
± gives the standard deviation of the averaged measurements.

The sequences below were run on Saccharomyces cerevisiae (assay: protein stability index of tFT-peptide fusion (C-terminal peptide) (PSI (0-1 scale)); higher = more stable (slower turnover)). Conditions: genetic background: wild type; temperature: 30 C.
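Also: PSI is a weighted mean of sequencing reads over stability bins, variants kept only with over 10 reads, mCherry proximal and sfGFP distal, peptide attached via GGGS linker.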

LPPPPSFTSPHL and LPPPSLPPLPLF are within error of each other in protein stability index: 0.743 ± 0.12 for the first, 0.728 ± 0.065 for the second.

LPPPSPGLPLSP and LPPRAPPTCFPL are within error of each other in protein stability index: 0.6773 ± 0.0059 for the first, 0.658 ± 0.12 for the second.

Compared with LPPRPPPPPPPA, LPPRPTPPPPPP is higher in protein stability index: 0.62606 ± 2.4e-05 for the first, 0.71 ± 0.056 for the second.

Going from LPPSNYPCPSGK to LPPSPPDPTPPP, the protein stability index falls from 0.706 ± 0.02 to 0.594 ± 0.0095.

LPPSQLPPPHLT and LPPSTSPPIRPP are within error of each other in protein stability index: 0.662 ± 0.019 for the first, 0.663 ± 0.043 for the second.

LPPTAPAPPSPP and LPPTLPPPPPAL are within error of each other in protein stability index: 0.716 ± 0.086 for the first, 0.724 ± 0.032 for the second.

LPQAVPCRTPPL and LPQLPNSRRLPL are within error of each other in protein stability index: 0.679 ± 0.054 for the first, 0.648 ± 0.049 for the second.

LPQSSRKEAHHH and LPRELFSQQRFL are within error of each other in protein stability index: 0.78 ± 0.062 for the first, 0.713 ± 0.0097 for the second.

LPRLSPSPRPSR and LPRPPLLTPSCL are within error of each other in protein stability index: 0.719 ± 0.008 for the first, 0.746 ± 0.06 for the second.

Going from LPRSAPLHFPAC to LPSCKVSLASLL, the protein stability index falls from 0.688 ± 0.02 to 0.6281 ± 0.0035.

LPSLFSPPLFPL and LPSPPASSPRRS are within error of each other in protein stability index: 0.702 ± 0.0017 for the first, 0.684 ± 0.025 for the second.

Going from LPVDPDTIIVVK to LPVFVIGEFLLV, the protein stability index falls from 0.663 ± 0.019 to 0.49 ± 0.037.

LQEQIHKPPKPQ and LRAPFGWVKRFL are within error of each other in protein stability index: 0.72 ± 0.00088 for the first, 0.663 ± 0.069 for the second.

Compared with LRFGGWFLIGLR, LRGPRRAVEGTP is higher in protein stability index: 0.583 ± 0.021 for the first, 0.66 ± 0.031 for the second.

Compared with LRIAKSGVGGFA, LRISIEVTNYGP is lower in protein stability index: 0.636 ± 0.029 for the first, 0.517 ± 0.021 for the second.

LRIYIKTGAKGV and LRKAKRDKRIKI are within error of each other in protein stability index: 0.71448 ± 0.00053 for the first, 0.759 ± 0.075 for the second.

Compared with LRKDVRTRSNTK, LRKGGGVGVWRG is lower in protein stability index: 0.806 ± 0.051 for the first, 0.687 ± 0.012 for the second.

Compared with LRLCPAPYIPVL, LRLDFPPARPHS is higher in protein stability index: 0.591 ± 0.012 for the first, 0.697 ± 0.044 for the second.

First: LRLLCRTRCYRS
Second: LRLPKGVSLVDI
The protein stability index of the first is higher: 0.666 ± 0.019 for the first, 0.6093 ± 0.0053 for the second.

LRLPPPLCPLRS and LRLPSHHPLCYF are within error of each other in protein stability index: 0.623 ± 0.054 for the first, 0.684 ± 0.011 for the second.

LRPCAGAVRPSA and LRPGVRHFRECV are within error of each other in protein stability index: 0.724 ± 0.0099 for the first, 0.627 ± 0.096 for the second.

LRPLVRLLHSYP and LRPPPPSAGAPP are within error of each other in protein stability index: 0.718 ± 0.031 for the first, 0.708 ± 0.088 for the second.

LRRPVDPSHIPI and LRRRGHCLRGEL are within error of each other in protein stability index: 0.663 ± 0.07 for the first, 0.6313 ± 0.0023 for the second.

First: LRRTMRLASASF
Second: LRSCLSIYDCSS
The protein stability index of the first is higher: 0.831 ± 0.014 for the first, 0.618 ± 0.16 for the second.

LRSHKIVDQDPF and LRSPFPTPSDLV are within error of each other in protein stability index: 0.7235 ± 0.005 for the first, 0.714 ± 0.051 for the second.

LRSPSDSLALPL and LRVGMWNNVINR are within error of each other in protein stability index: 0.666 ± 0.028 for the first, 0.734 ± 0.12 for the second.

LRVVISWGLDLY and LRWFLTGWPRGE are within error of each other in protein stability index: 0.529 ± 0.02 for the first, 0.699 ± 0.16 for the second.

Going from LRYARAPFPAPP to LSARIGEMVDTW, the protein stability index falls from 0.699 ± 0.024 to 0.56 ± 0.027.

Compared with LSARSSFIFSYY, LSDGATDIGCLL is higher in protein stability index: 0.645 ± 0.017 for the first, 0.741 ± 0.037 for the second.

LSDKTALDRPVH and LSDMNHVLKVFL are within error of each other in protein stability index: 0.625 ± 0.057 for the first, 0.665 ± 0.054 for the second.

LSEFFLSAFLSC and LSFFGPPFPISF are within error of each other in protein stability index: 0.712 ± 0.011 for the first, 0.74 ± 0.043 for the second.

LSFPFLFSVPFL and LSGCASGYRPPW are within error of each other in protein stability index: 0.733 ± 0.021 for the first, 0.683 ± 0.047 for the second.

LSGGAVVEVHFL and LSGLLGGGAGTL are within error of each other in protein stability index: 0.674 ± 0.011 for the first, 0.678 ± 0.013 for the second.

Compared with LSGLVPSLGCRR, LSGPPVSVQRSF is lower in protein stability index: 0.786 ± 0.06 for the first, 0.594 ± 0.03 for the second.

LSGYLVCSLSLR and LSIIRSPDWVDC are within error of each other in protein stability index: 0.695 ± 0.045 for the first, 0.639 ± 0.059 for the second.

Going from LSLDMVAPTGLA to LSLPTLPLPPPS, the protein stability index rises from 0.686 ± 0.014 to 0.7173 ± 0.006.

LSLSILFTPSPN and LSLSPPPASPIP are within error of each other in protein stability index: 0.682 ± 0.051 for the first, 0.692 ± 0.011 for the second.

LSPFPLFAPFNF and LSPHSSLTPPPH are within error of each other in protein stability index: 0.635 ± 0.039 for the first, 0.616 ± 0.037 for the second.

Going from LSPLPPDLPDLP to LSPLPPSPPPST, the protein stability index falls from 0.699 ± 0.12 to 0.543 ± 0.025.

Going from LSPPPPLALTPS to LSPTPSAPPCFG, the protein stability index falls from 0.709 ± 0.021 to 0.601 ± 0.043.

LSRFLPESVYMS and LSRFPSPPPLSH are within error of each other in protein stability index: 0.679 ± 0.011 for the first, 0.701 ± 0.024 for the second.

Going from LSRLRVLLTPIS to LSRVLQAPRRGG, the protein stability index rises from 0.56 ± 0.075 to 0.681 ± 0.0075.

Compared with LSSCLFDPIFLF, LSSQCIVQLFRA is lower in protein stability index: 0.783 ± 0.018 for the first, 0.64 ± 0.025 for the second.

Compared with LSSSTHNLDFLQ, LSSTIFHRSCVR is higher in protein stability index: 0.698 ± 0.041 for the first, 0.759 ± 0.02 for the second.

LSTCSFSFFLHT and LSTSLPLSPPPP are within error of each other in protein stability index: 0.66 ± 0.019 for the first, 0.652 ± 0.013 for the second.

LSTTQSKTLNPR and LSVFWRGSLWTL are within error of each other in protein stability index: 0.682 ± 0.052 for the first, 0.635 ± 0.023 for the second.

LSVMACGMGESI and LSVVLARLCQGS are within error of each other in protein stability index: 0.696 ± 0.017 for the first, 0.6842 ± 0.0052 for the second.

LSYGQKARIKRE and LSYPPPPTQPPA are within error of each other in protein stability index: 0.703 ± 0.075 for the first, 0.734 ± 0.0083 for the second.

Going from LTAFFPFSTFFP to LTEFVVFFFFVF, the protein stability index falls from 0.714 ± 0.042 to 0.5166 ± 0.0049.

Going from LTFILGPPRMWL to LTFSVQCVYFDS, the protein stability index falls from 0.669 ± 0.018 to 0.571.

LTGESGDRSVGP and LTPGFSRIDRAP are within error of each other in protein stability index: 0.657 ± 0.019 for the first, 0.718 ± 0.062 for the second.

LTRLAYGLATAL and LTRQCLLPGWGL are within error of each other in protein stability index: 0.664 ± 0.019 for the first, 0.707 ± 0.067 for the second.

LTRSIKVWRAMR and LTSPPRPAFVRV are within error of each other in protein stability index: 0.686 ± 0.018 for the first, 0.636 ± 0.035 for the second.

LTSSYSLCFLAP and LTTPTIAKTREN are within error of each other in protein stability index: 0.696 ± 0.011 for the first, 0.691 ± 0.016 for the second.

LTVLPAVNCFPV and LVAFNCVVLGKG are within error of each other in protein stability index: 0.681 ± 0.021 for the first, 0.686 ± 0.014 for the second.

LVCHDWFSFYMF and LVDEGRGLRWSR are within error of each other in protein stability index: 0.64 ± 0.035 for the first, 0.679 ± 0.0075 for the second.

LVFPRCAFGFCF and LVFRSMFFFRLF are within error of each other in protein stability index: 0.6791 ± 0.0047 for the first, 0.66 ± 0.017 for the second.

LVGGFLVSGRAR and LVGLNNSFVSKA are within error of each other in protein stability index: 0.69 ± 0.051 for the first, 0.6448 ± 0.0039 for the second.

LVGTFTEKFRVC and LVHVPVCFLSVL are within error of each other in protein stability index: 0.578 ± 0.023 for the first, 0.557 ± 0.0021 for the second.

First: LVLLPLPLPLFP
Second: LVMQSVQDDPVF
The protein stability index of the first is lower: 0.578 ± 0.015 for the first, 0.692 ± 0.0081 for the second.

First: LVPLPLPPPPPS
Second: LVQPHGSRFGLA
The protein stability index of the first is higher: 0.672 ± 0.0028 for the first, 0.644 ± 0.012 for the second.

First: LVRPGSTRDKRT
Second: LVSLSPCPSSPL
The protein stability index of the first is higher: 0.736 ± 0.034 for the first, 0.671 ± 0.014 for the second.

LVVEAIRSRAFK and LVVGFRVGLRGV are within error of each other in protein stability index: 0.6919 ± 0.0028 for the first, 0.669 ± 0.035 for the second.

LVVGGLVLSGNL and LVWGQPWKMPVV are within error of each other in protein stability index: 0.668 ± 0.057 for the first, 0.699 ± 0.012 for the second.

Going from LWCGGWVCVLGW to LWGGAGLRCGGF, the protein stability index rises from 0.532 ± 0.013 to 0.726 ± 0.017.

LWGVGAGPEDVG and LWRVRCGLGMSG are within error of each other in protein stability index: 0.68 ± 0.014 for the first, 0.681 ± 0.15 for the second.

LYDQTSQDRRVF and LYDSNLILSIPC are within error of each other in protein stability index: 0.6974 ± 0.004 for the first, 0.617 ± 0.14 for the second.

Going from LYFGVGSICLVS to LYHFYTASPCLI, the protein stability index falls from 0.649 ± 0.043 to 0.536 ± 0.044.

Compared with LYLLPLCRPFPY, LYLRNFGSPFLV is lower in protein stability index: 0.692 ± 0.013 for the first, 0.65 ± 0.024 for the second.

LYRILQAPRSSP and LYSAHLAPGNAD are within error of each other in protein stability index: 0.703 ± 0.079 for the first, 0.656 ± 0.039 for the second.

Compared with MCGLVGDVLAVG, MEAAARRMIKRK is lower in protein stability index: 0.762 ± 0.1 for the first, 0.6 ± 0.04 for the second.

MFLVLEGIDSRV and MGGGGARAVVVG are within error of each other in protein stability index: 0.65 ± 0.051 for the first, 0.627 ± 0.021 for the second.

MGGRAEGWVPVP and MGLRDPEWSGDI are within error of each other in protein stability index: 0.68 ± 0.15 for the first, 0.673 ± 0.018 for the second.

MGQVMTKQQRKI and MGWGALGARGLV are within error of each other in protein stability index: 0.668 ± 0.016 for the first, 0.683 ± 0.029 for the second.

MGYDYAPISALF and MIKINHRIKIKY are within error of each other in protein stability index: 0.691 ± 0.1 for the first, 0.7115 ± 0.0039 for the second.

MKEKTNLETKDT and MLLLIDTSGGWS are within error of each other in protein stability index: 0.691 ± 0.013 for the first, 0.71 ± 0.011 for the second.

MLRMSVSRGGLL and MPFTSDAAALAP are within error of each other in protein stability index: 0.729 ± 0.011 for the first, 0.689 ± 0.03 for the second.

MPIKGRHSRSLK and MPPRVLSALAPL are within error of each other in protein stability index: 0.66 ± 0.044 for the first, 0.642 ± 0.0023 for the second.

MPRRLSLNLDYL and MRDRDSVDNMDG are within error of each other in protein stability index: 0.6563 ± 0.0064 for the first, 0.666 ± 0.025 for the second.

MRPSLSDAMMSS and MRRTFQHQGRAN are within error of each other in protein stability index: 0.687 ± 0.055 for the first, 0.676 ± 0.031 for the second.
